The target in the assay is recombinant HAdV55 fiber protein (human adenovirus type 55 (HAdV55)). The assay is described as follows: SDS-PAGE without heating or reducing agent; purified recombinant fiber in loading buffer with 10% SDS, without beta-ME, kept at room temperature for 5 min ("Non-reducing").

Take “recombinant HAdV55 fiber protein (natural protein)”: the stoichiometry N was 3.

Values taken from publication PMC10060833.
